Test results taken from patent US20090280138A1 (OXFORD BIOMEDICA UK, published 2009).

Key:
[1] = biological target: T1, MHC class I molecule HLA-A*0201 (iTopia plate-bound monomer) (biotin (bound to streptavidin-coated plate)); test: iTopia off-rate assay, 37 C; fit R^2 0.82
T1 construct: also called A2
Procedure: (§1) The 9 mers were tested for Peptide Binding, Off Rate and Affinity using iTopia Epitope Discovery System in accordance with the manufacturer's instructions. Briefly, 96 well microtitre plates coated with MHC molecules representing different MHC alleles are used to identify candidate peptides. […] Determinations are performed in duplicate using an ELISA plate reader and included allele specific positive controls.
(§2) A one-phase exponential decay curve, with a plateau given equal to 0, was generated using GraphPad Prism® software, which calculated the t1/2 and goodness-of-fit, as measured by r², for each peptide.

[2] = biological target: T1, MHC class I molecule HLA-A*0201 (iTopia …); test: iTopia off-rate assay, 37 C; fit R^2 0.33
Procedure: as §1, §2

[3] = biological target: T2, MHC class I molecule HLA-B*0702 (iTopia plate-bound monomer) (biotin (bound to streptavidin-coated plate)); test: iTopia off-rate assay, 37 C; fit R^2 0.42
T2 construct: Commercial iTopia system; also called B7
Procedure: as §1, §2

[4] = biological target: T3, MHC class I molecule HLA-A*0101 (iTopia plate-bound monomer) (biotin (bound to streptavidin-coated plate)); test: iTopia off-rate assay, 37 C; fit R^2 0.25
T3 construct: also called A1
Procedure: as §1, §2

[5] = biological target: T1, MHC class I molecule HLA-A*0201 (iTopia …); test: iTopia off-rate assay, 37 C; fit R^2 0.98
Procedure: as §1, §2

[6] = biological target: T2, MHC class I molecule HLA-B*0702 (iTopia …); test: iTopia off-rate assay, 37 C; fit R^2 0.91
Procedure: as §1, §2

[7] = biological target: T1, MHC class I molecule HLA-A*0201 (iTopia …); test: iTopia off-rate assay, 37 C; fit R^2 0.65
Procedure: as §1, §2

[8] = biological target: T1, MHC class I molecule HLA-A*0201 (iTopia …); test: iTopia off-rate assay, 37 C; fit R^2 0.83
Procedure: as §1, §2

[9] = biological target: T2, MHC class I molecule HLA-B*0702 (iTopia …); test: iTopia off-rate assay, 37 C; fit R^2 0.02
Procedure: as §1, §2

[10] = biological target: T1, MHC class I molecule HLA-A*0201 (iTopia …); test: iTopia off-rate assay, 37 C; fit R^2 0.67
Procedure: as §1, §2

[11] = biological target: T1, MHC class I molecule HLA-A*0201 (iTopia …); test: iTopia off-rate assay, 37 C; fit R^2 0.9
Procedure: as §1, §2

[12] = biological target: T4, MHC class I molecule HLA-A*0301 (iTopia plate-bound monomer) (biotin (bound to streptavidin-coated plate)); test: iTopia off-rate assay, 37 C; fit R^2 0.58
T4 construct: also called A3
Procedure: as §1, §2

[13] = biological target: T1, MHC class I molecule HLA-A*0201 (iTopia …); test: iTopia off-rate assay, 37 C; fit R^2 0.68
Procedure: as §1, §2

[14] = biological target: T2, MHC class I molecule HLA-B*0702 (iTopia …); test: iTopia off-rate assay, 37 C; fit R^2 0.88
Procedure: as §1, §2

[15] = biological target: T1, MHC class I molecule HLA-A*0201 (iTopia …); test: iTopia off-rate assay, 37 C; fit R^2 0.89
Procedure: as §1, §2

[16] = biological target: T1, MHC class I molecule HLA-A*0201 (iTopia …); test: iTopia off-rate assay, 37 C; fit R^2 0.66
Procedure: as §1, §2

[17] = biological target: T2, MHC class I molecule HLA-B*0702 (iTopia …); test: iTopia off-rate assay, 37 C; fit R^2 0.22
Procedure: as §1, §2

[18] = biological target: T1, MHC class I molecule HLA-A*0201 (iTopia …); test: iTopia off-rate assay, 37 C; fit R^2 0.05
Procedure: as §1, §2

[19] = biological target: T1, MHC class I molecule HLA-A*0201 (iTopia …); test: iTopia off-rate assay, 37 C; fit R^2 0.6
Procedure: as §1, §2

[20] = biological target: T1, MHC class I molecule HLA-A*0201 (iTopia …); test: iTopia off-rate assay, 37 C; fit R^2 0.49
Procedure: as §1, §2

[21] = biological target: T2, MHC class I molecule HLA-B*0702 (iTopia …); test: iTopia off-rate assay, 37 C; fit R^2 0.11
Procedure: as §1, §2

[22] = biological target: T1, MHC class I molecule HLA-A*0201 (iTopia …); test: iTopia off-rate assay, 37 C; fit R^2 0.95
Procedure: as §1, §2

[23] = biological target: T3, MHC class I molecule HLA-A*0101 (iTopia …); test: iTopia off-rate assay, 37 C; fit R^2 0.88
Procedure: as §1, §2

[24] = biological target: T4, MHC class I molecule HLA-A*0301 (iTopia …); test: iTopia off-rate assay, 37 C; fit R^2 0.9
Procedure: as §1, §2

[25] = biological target: T2, MHC class I molecule HLA-B*0702 (iTopia …); test: iTopia off-rate assay, 37 C; fit R^2 0.79
Procedure: as §1, §2

[26] = biological target: T1, MHC class I molecule HLA-A*0201 (iTopia …); test: iTopia off-rate assay, 37 C; fit R^2 0.57
Procedure: as §1, §2

[27] = biological target: T2, MHC class I molecule HLA-B*0702 (iTopia …); test: iTopia off-rate assay, 37 C; fit R^2 0.66
Procedure: as §1, §2

[28] = biological target: T1, MHC class I molecule HLA-A*0201 (iTopia …); test: iTopia off-rate assay, 37 C; fit R^2 0.59
Procedure: as §1, §2

[29] = biological target: T4, MHC class I molecule HLA-A*0301 (iTopia …); test: iTopia off-rate assay, 37 C; fit R^2 0.95
Procedure: as §1, §2

[30] = biological target: T2, MHC class I molecule HLA-B*0702 (iTopia …); test: iTopia off-rate assay, 37 C; fit R^2 0.36
Procedure: as §1, §2

[31] = biological target: T1, MHC class I molecule HLA-A*0201 (iTopia …); test: iTopia off-rate assay, 37 C; fit R^2 0.63
Procedure: as §1, §2

[32] = biological target: T2, MHC class I molecule HLA-B*0702 (iTopia …); test: iTopia off-rate assay, 37 C; fit R^2 0.84
Procedure: as §1, §2

[33] = biological target: T2, MHC class I molecule HLA-B*0702 (iTopia …); test: iTopia off-rate assay, 37 C; fit R^2 0.68
Procedure: as §1, §2

[34] = biological target: T1, MHC class I molecule HLA-A*0201 (iTopia …); test: iTopia off-rate assay, 37 C; fit R^2 0.77
Procedure: as §1, §2

[35] = biological target: T4, MHC class I molecule HLA-A*0301 (iTopia …); test: iTopia off-rate assay, 37 C; fit R^2 0.94
Procedure: as §1, §2

[36] = biological target: T2, MHC class I molecule HLA-B*0702 (iTopia …); test: iTopia off-rate assay, 37 C; fit R^2 0.75
Procedure: as §1, §2

[37] = biological target: T2, MHC class I molecule HLA-B*0702 (iTopia …); test: iTopia off-rate assay, 37 C; fit R^2 0.23
Procedure: as §1, §2

[38] = biological target: T3, MHC class I molecule HLA-A*0101 (iTopia …); test: iTopia off-rate assay, 37 C; fit R^2 0.87
Procedure: as §1, §2

[39] = biological target: T1, MHC class I molecule HLA-A*0201 (iTopia …); test: iTopia off-rate assay, 37 C; fit R^2 0.91
Procedure: as §1, §2

[40] = biological target: T3, MHC class I molecule HLA-A*0101 (iTopia …); test: iTopia off-rate assay, 37 C; fit R^2 0.97
Procedure: as §1, §2

[41] = biological target: T1, MHC class I molecule HLA-A*0201 (iTopia …); test: iTopia off-rate assay, 37 C; fit R^2 0.74
Procedure: as §1, §2

[42] = biological target: T4, MHC class I molecule HLA-A*0301 (iTopia …); test: iTopia off-rate assay, 37 C; fit R^2 0.88
Procedure: as §1, §2

[43] = biological target: T2, MHC class I molecule HLA-B*0702 (iTopia …); test: iTopia off-rate assay, 37 C; fit R^2 0.15
Procedure: as §1, §2

RHLDLSNNS [5T4 9-mer peptide 119 RHLDLSNNS]
t½ half life [1]: 1.1 h

LAELAALNL (also called Peptide No 59) [5T4 9-mer peptide 59 LAELAALNL]
t½ half life [2]: 13.1 h
t½ half life [3]: 3.2 h
t½ half life [4]: 2.5 h

GAFARRPPL (also called Peptide No 55) [5T4 9-mer peptide 55 GAFARRPPL]
t½ half life [5]: 1.9 h
t½ half life [6]: 1.3 h

SSFSSSAPF (also called Peptide No 20) [5T4 9-mer peptide 20 SSFSSSAPF]
t½ half life [7]: 24 min

RNLTHLESL (also called Peptide No 128) [5T4 9-mer peptide 128 RNLTHLESL]
t½ half life [8]: 54 min

APFLASAVS (also called Peptide No 23) [5T4 9-mer peptide 23 APFLASAVS]
t½ half life [9]: 2.6 h
t½ half life [10]: 1.6 h

VLPAGAFAR (also called Peptide No 53) [5T4 9-mer peptide 53 VLPAGAFAR]
t½ half life [11]: 2.2 h
t½ half life [12]: 30 min

RDACRDHME (also called Peptide No 195) [5T4 9-mer peptide 195 RDACRDHME]
t½ half life [13]: 3 h

LPSLRQLDL (also called Peptide No 71) [5T4 9-mer peptide 71 LPSLRQLDL]
t½ half life [14]: 3.1 h
t½ half life [15]: 1.4 h

GGCSRGPAA (also called Peptide No 2) [5T4 9-mer peptide 2 GGCSRGPAA]
t½ half life [16]: 30 min
t½ half life [17]: 1.3 h

IKKWMHNIR (also called Peptide No 191) [5T4 9-mer peptide 191 IKKWMHNIR]
t½ half life [18]: 14.6 h

MHNIRDACR (also called Peptide No 193) [5T4 9-mer peptide 193 MHNIRDACR]
t½ half life [19]: 5.3 h

PPLAELAAL (also called Peptide No 58) [5T4 9-mer peptide 58 PPLAELAAL]
t½ half life [20]: 4.6 h
t½ half life [21]: 3 h

FSSSAPFLA (also called Peptide No 21) [5T4 9-mer peptide 21 FSSSAPFLA]
t½ half life [22]: 18 min
t½ half life [23]: 12 min

YLNRKGIKK (also called Peptide No 188) [5T4 9-mer peptide 188 YLNRKGIKK]
t½ half life [24]: 42 min
t½ half life [25]: 3.3 h
t½ half life [26]: 6.5 h

RLRLARLAL (also called Peptide No 8) [5T4 9-mer peptide 8 RLRLARLAL]
t½ half life [27]: 3.1 h
t½ half life [28]: 7.2 h
t½ half life [29]: 12 min

HFLYLPRDV [5T4 9-mer peptide 111 HFLYLPRDV]
t½ half life [1]: 2.9 h

ADPRLTNLS (also called Peptide No 204) [5T4 9-mer peptide 204 ADPRLTNLS]
t½ half life [30]: 3.1 h

LAVLPAGAF (also called Peptide No 52) [5T4 9-mer peptide 52 LAVLPAGAF]
t½ half life [31]: 3.6 h
t½ half life [32]: 18 min

LQGLRRLEL [5T4 9-mer peptide 105 LQGLRRLEL]
t½ half life [33]: 12 min
t½ half life [34]: 2.1 h

RLDEVRAGA (also called Peptide No 65) [5T4 9-mer peptide 65 RLDEVRAGA]
t½ half life [35]: 12 min
t½ half life [28]: 9.7 h
t½ half life [36]: 12 min

SPTSSASSF (also called Peptide No 17) [5T4 9-mer peptide 17 SPTSSASSF]
t½ half life [37]: 2.6 h

VPTDLPAYV (also called Peptide No 43) [5T4 9-mer peptide 43 VPTDLPAYV]
t½ half life [38]: 1.8 h
t½ half life [39]: 1.1 h

HMEGYHYRY (also called Peptide No 198) [5T4 9-mer peptide 198 HMEGYHYRY]
t½ half life [40]: 1.3 h
t½ half life [41]: 6.3 h
t½ half life [42]: 1.7 h

DGRLRLARL (also called Peptide No 7) [5T4 9-mer peptide 7 DGRLRLARL]
t½ half life [43]: 2.6 h
